PMC5105191
Where two headings read alike, the source gives them in different places. One block for each molecule: values may come before it.

Columns and labels:
[1] = target: FITC–PHC2_(32–61) (human); experiment: fluorescence polarisation; 20 nM fluorescein-labelled PHC2 32-61 titrated with BMI1 UBL variants or MEL18 UBL; 50 mM bis tris pH 7.5, 50 mM NaCl, 1 mM TCEP, 0.01% BSA, 0.25% tween-20; 1 h incubation
[2] = target: BMI1_(121–235), BMI1 UBL domain, wild type (UniProt P35226); experiment: ITC; VP-ITC, 25 °C, 50 mM phosphate pH 6.5, 50 mM NaCl, 1 mM TCEP; BMI1 121-235 in the cell (22 or 9 μM), titrated with trx-PHC2 1-79 (164 μM) or PHC2 33-56 (100 μM)
[3] = target: FITC–PHC2_(32–61) (human); experiment: fluorescence polarisation; 20 nM fluorescein-labelled PHC2 32-61 titrated with BMI1 UBL variants or MEL18 UBL; 50 mM bis tris pH 7.5, 50 mM NaCl, 1 mM TCEP, 0.01% BSA, 0.25% tween-20; 1 h incubation; remark: listed apart in the source

Molecule: BMI1 UBL domain H174E (from UniProt P35226 121-235) (domain or fragment)
Kd [1]: 20.1 µM

Molecule: trx-PHC2_(1–79) (domain or fragment)
Kd [2]: 398 nM
stoichiometry N [2]: 1

Molecule: PHC2_(33–56) peptide
Kd [2]: 413 nM

Molecule: BMI1 UBL domain R165E/H174E double mutant (from UniProt P35226 121-235) (domain or fragment)
Kd [1]: > 50 µM

B1: MEL18_(121-237) fragment, MEL18 UBL domain (domain or fragment)
chain: EKGALSDDEIVSLSIEFYEGARDRDEKKGPLENGDGDKEKTGVRFLRCPAAMTVMHLAKFLRNKMDVPSKYKVEVLYEDEPLKEYYTLMDIAYIYPWRRNGPLPLKYRVQPACKRLT
Kd [3]: 812 nM

The remaining molecules from weak to strong by Kd [1], led by results:

Kd [1]: 17 µM
Molecule: BMI1 UBL domain M170E (from UniProt P35226 121-235) (domain or fragment)

Kd [1]: 5.9 µM
Molecule: BMI1 UBL domain R165E (from UniProt P35226 121-235) (domain or fragment)

Kd [1]: 1.04 µM
Molecule: BMI1 UBL domain I212E (from UniProt P35226 121-235) (domain or fragment)

Kd [1]: 0.409 µM
Molecule: BMI1 UBL domain F189Q (from UniProt P35226 121-235) (domain or fragment)

Kd [1]: 0.215 µM
Molecule: BMI1_(121–235), BMI1 UBL domain, wild type (from UniProt P35226 121-235) (domain or fragment)
